From paper PMC8612531 (Science Advances, 2021)
Residue numbers refer to the chain shown, from its start. Numbers in names are those of the source.

Tests used:
SEC-MALS = target: the molecule itself; test: SEC-MALS
A0A0H2 = test: SEC-MALS
crystal structure = target: the molecule itself; test: crystal structure
SEC = target: the molecule itself; test: SEC

B1: XccBphP R525E-R527E full-length variant, apoprotein (natural protein)
chain: STATNPLDLDVCAREPIHIPGLIQPYGVLLVIDPADGRIVQASTTAADLLGVPMAALLGMPYTQVLTLPEAQPFAVDDQPQHLMHAEVRFPQRATPPASAWVAAWHLYPQQWLVEMEPRDARLLDVTLREAMPLLRSVERDPGIAEAAVRVAKGLRSLIGFDRVMIYRFDEEWNGDIIAEARKPELEAYLGLHYPASDIPAQARALYLRNRVRQIADVGYQPSPIQPTVHPQLGTPVDLSDVSLRSVSPVHLEYLANMGVTATLVASIVVNDALWGLISCHHYSPHFTNHAMRDVTDAVARTLAGRIGALQAVARARLESVLLTVREKLITDFNDAEHMTVELLDDMAPDLMDVVDADGVAIFHGNDISRHGTTPDVAALRRIRDHIESEHHEALREDAVGALHVDAIGEVFPELADLAPLAAGFIFVPLMPQSRSALLWTRREQIQQIKWAGNPQLAKLEDIPNSRLSPRKSFDLWQQTVRGRARRWSPLHLESARSLRVLIELMERKRFQQDFTLLEASLSELEDGVAIIERGTANAAHRLLFVNTAFADVCGSDVAELIGRELQTLYASDAPRANVELLQDALRNGRAAYVTLPLQVSDGAPVYRQFHLEPLPSPSGVTAHWLLQLRDPE
Question: With B1 as the protein, how does the “percent dimer (secondary peak)” value (SEC-MALS) read?
Answer: ~15%

Question: And the “stoichiometry N” value (SEC-MALS)?
Answer: 2

Question: What about the “percent monomer (main peak)” value (A0A0H2) of the same protein?
Answer: Monomer (~85%)

B2: XccBphP F512P variant, apoprotein (natural protein)
chain: B1 chain with F511P, E524R, E526R
Question: Which “stoichiometry N” value (SEC-MALS) does the source give for B2 here?
Answer: 2

B3: XccBphP wild-type full-length bacteriophytochrome, apoprotein (natural protein)
chain: B1 chain with E524R, E526R
Question: Which “stoichiometry N” value (SEC-MALS) does the source give for B3 here?
Answer: 2

B4: XccBphP W478A variant, apoprotein (natural protein)
chain: B1 chain with W477A, E524R, E526R
Question: How did the “stoichiometry N” value (SEC-MALS) turn out when B4 was run?
Answer: 2

B5: XccBphP W452A-G454E variant, apoprotein (natural protein)
chain: B1 chain with W451A, G453E, E524R, E526R
Question: Which “stoichiometry N” value (SEC-MALS) does the source give for B5 here?
Answer: 2

B6: XccBphP A453E variant, apoprotein (natural protein)
chain: B1 chain with A452E, E524R, E526R
Question: B6 was tested. Which “stoichiometry N” value (SEC-MALS) did it give?
Answer: 2

B7: XccBphP G454E full-length variant, apoprotein (natural protein)
chain: B1 chain with G453E, E524R, E526R
Question: B7 was tested. Which “stoichiometry N” value (SEC-MALS) did it give?
Answer: 2

B8: XccBphP G454E full-length variant, holoprotein (biliverdin-bound) (natural protein)
chain: B1 chain with G453E, E524R, E526R
modifications: biliverdin IXα (BV) covalently bound to Cys13 (thioether linkage)
Question: Does B8 bind (crystal structure)?
Answer: binds

B9: XccBphP G454A variant, apoprotein (natural protein)
chain: B1 chain with G453A, E524R, E526R
Question: How did the “stoichiometry N” value (SEC-MALS) turn out when B9 was run?
Answer: 2

B10: XccBphP G454A variant, holoprotein (biliverdin-bound) (natural protein)
chain: B1 chain with G453A, E524R, E526R
modifications: biliverdin IXα (BV) covalently bound to Cys13 (thioether linkage)
Question: Does B10 bind (SEC)?
Answer: binds
